For 22 molecules, Kd results are on record in patent US20240101708A1 (Genentech, published 2024).

Positions count from the first letter of the chain named.

Usually Kd stands for a measure of binding affinity in units of concentration.

For the assay, the target named is T1, recombinant human ZNRF3 extracellular domain (human, UniProt Q9ULT6 56-219).
T1 construct: extracellular domain; also called huZNRF3; human ZNRF3 ECD
T1 sequence (looked up): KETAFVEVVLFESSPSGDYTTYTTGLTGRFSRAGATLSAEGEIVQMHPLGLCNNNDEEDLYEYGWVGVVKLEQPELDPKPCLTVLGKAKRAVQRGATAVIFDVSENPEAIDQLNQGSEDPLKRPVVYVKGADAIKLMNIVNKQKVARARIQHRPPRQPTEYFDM
Put plainly: SPR Biacore 8K; antibody captured on Protein A; ZNRF3 ECD analyte; 25 C. As to the method:
Antibodies were screened for binding to recombinant human RNF43 and ZNRF3 ECDs using a Biacore® 8 k instrument (GE Life Sciences). Briefly, antibodies diluted to 1 μg/ml in 1×HBSP buffer (Cytiva, BR100368) were captured on a Sensor Chip Protein A (GE Life Sciences) using a flow rate of 10 μl/minute and a contact time of 60 seconds. Binding of recombinant human RNF43 and ZNRF3 extracellular domain to the captured antibodies was analyzed at 25° C. using a single cycle kinetics method with a flow rate of 30 μl/minute, a contact time of 180 seconds and a dissociation time of 600 seconds. The concentration of recombinant human RNF43 and ZNRF3 extracellular domain in the single cycle kinetics were 0, 0.8, 4, 20, and 100 nM. Between cycles, the chip was regenerated using 10 mM Glycine HCl pH 1.5 injected for 30 seconds at 30 μl/minute. Data were evaluated using Biacore 8K Evaluation software (GE Life Sciences). Kinetic constants were obtained using a 1:1 binding model with the parameter RI set to zero. Cell surface ligase antibodies with sub-nanomolar affinities may provide advantages in certain instances, for example, in the degradation efficiency which is correlated with the durability of the ternary complex as shown in FIG. 5D.
A general note: Surface plasmon resonance follows binding to a sensor surface in real time, without labels.

B1: ZNRF3-265 (antibody, V domains shown)
VH: EVQLVESGGGLVQPGRSMKLSCVASGFSFSKYGMAWVRQAPTKALEWVAIISQDGSRIYYGGSVKGRFTLSRDNEKSTLHLHMNSLRSEDTATYYCARGSILRMITFFDYWGQGVTVTVSS
VL: DIQMTQSPASLSASLGETVSIECLASEGISNDLAWYQQKSGKSPRLLIYAASRLQDGVPSRFSGSGSDTRFSLKISGMHPEDEADYFCQQSYGYPLTFGSGTKLEIK
notes: Rat clone; VH/VL only
As for B1, the Kd worked out at 0.0286 nM.

B2: ZNRF3-305 (antibody, V domains shown)
VH: EVLLQQSGAELVRPGSSVKISCKTSGYTFTDYYLHWVKQRPEQGLVWIGRINPINGKTVCIEKFKTKATLTADKSSNTAYMELSSLTSEDTATYFCTRGGLAYWGQGTLVTVSS
VL: DIQMTQSPSSLPASLGERVTISCRASQGISNNLNWYQQKPDGTIKPLIYYTSNLQSGVPSRFSGSGSGTDYSLTIGSLEPEDFTMYYCQQDASFPPTFGAGTKLELK
notes: Rat clone; VH/VL only
B2: the dissociation constant Kd was 7.18 nM.

B3: ZNRF3-269 (antibody, V domains shown)
VH: EIQLQESGPGLVKPSQSLSLTCSVTDDTITSGYDWSWIRKFPGNKMEWMGDISSSGHTNYNPSLQIRISITRDTSKNQFFLQLNSVTTEDSATYYCARGGFLFPFTFWGQGTLVTVSS
VL: B2 VL with G28V, I29L, S30N, I48L, G76T, E79D, T84A, M85I, A100G
notes: Rat clone; VH/VL only
Regarding B3, the Kd turned out to be 0.312 nM.

B4: ZNRF3-253 (antibody, V domains shown)
VH: EVQLVESGGGLVQPERSMKLSCAASGFTFSNYGMAWVRQAPTKGLEWVATINSDGSGTYYRGSVKGRFTISRDNAKSTLYLQMNSLRSDDTATYYCTRGRMLRIISFFDYWGQGVMVTVSS
VL: DIQMTQSPASLSASLGETVSIECLASEDIANDLAWYQQKSGKSPQVLIYAASRVQDGVPSRFSGSGSGTRYSLKITDMQPEDVADYFCQQSYGFPLTFGSGTKLEIK
notes: Rat clone; VH/VL only
Turning to B4, the Kd is 0.483 nM.

B5: ZNRF3-254 (antibody, V domains shown)
VH: EVQLVESGGGLVQPERSMKLSCAASGFTFNNYGMAWVRQTPTKGLEWVATINSDGSGTHYRGSVKGRFTISRDNAKGTLYLQMHNLRSDDTATYYCARGRILRIITYFDSWGQGVVVTVSS
VL: B4 VL with T18S, K42R, Y49H
notes: Rat clone; VH/VL only
In the case of B5, the Kd was found to be 0.104 nM.

B6: ZNRF3-300 (antibody, V domains shown)
VH: B4 VH with K76R, S77N, Q82E, M101I, S106T, F107Y
VL: B4 VL with L15V, K74R, T76S, G93S
notes: Rat clone; VH/VL only
Consider B6, for which the Kd is 0.239 nM.

B7: ZNRF3-223 (antibody, V domains shown)
VH: EVQLVESGGGLVQPGESLKLSCSASGFTFSNYGMHWIRQVPGKGLDWVAYITNSGGSLYAAAVKGRFTISRDNAKNTLYLELTSLKSEDTAIYHCARGYSYPGPYWGRGTLVTVSS
VL: DIQVTQSPSSLLASLGERVTITCQTGQSINNYLNWYQQRPGQAPLLLIYFATSLQTGVPSRFSGQYSGRSFTLTITSLEPEDIANYFCLQHYSPPYTFGAGTKLELR
notes: Rat clone; VH/VL only
For the molecule B7, the Kd worked out at 0.0443 nM.

B8: ZNRF3-329 (antibody, V domains shown)
VH: EVQLVESGGGLVQPGKSLKLSCSASGFTFSSHGMHWIRQAPGKGLDWVAYISNNSGTIYSAAVRGRFTISRDNSKNTLFLQLNSLKSEDTAIYYCARGYNYPGAYWGQGTLVTVSS
VL: B7 VL with G26S, N30R, R39K, A43V, L45I, F50Y, G57D, V58M, P94V, R107K
notes: Rat clone; VH/VL only
Take B8: the Kd amounted to 0.283 nM.

B9: ZNRF3-244 (antibody, V domains shown)
VH: B8 VH with H32Y, A40T, N53T, I58V, S60A, A61D, R64K, S74A, F79Y, K86Q
VL: B7 VL with G26S, N30S, Y32N, R39K, L45M, F50Y, V58M, S93N, R107K
notes: Rat clone; VH/VL only
For B9, the Kd was found to be 6.85 nM.

B10: ZNRF3-231 (antibody, V domains shown)
VH: B7 VH with T52S, A61D, T83N, R108Q
VL: B7 VL
notes: Rat clone; VH/VL only
Consider B10, for which the Kd amounted to 0.0783 nM.

B11: ZNRF3-270 (antibody, V domains shown)
VH: B7 VH with S87P
VL: B7 VL
notes: Rat clone; VH/VL only
On to B11, for which the Kd was determined as 0.0424 nM.

B12: ZNRF3-255 (antibody, V domains shown)
VH: EVQLVESGGGLVQPGRSLKLSCAASGFTFSSFTMAWVRQAPKKGLEWVASISSGGGGTYYPDSVKGRFTISRDNAKSTLYLQMDSLRSEDTASYYCATGGFAYWGQGTLVIVSS
VL: DIQMTQSPSSLPASLGDRVTITCRASQDIGSYLRWFQQKPGKSPRLMIYGATSLANGVPSRFSGSRSGSDYSLTINNLESEDMAIYYCLQHNEFPYTFGTGTKLELK
notes: Rat clone; VH/VL only
For B12, the Kd turned out to be 0.26 nM.

B13: ZNRF3-287 (antibody, V domains shown)
VH: EVQLVGSGGGLVQPGRSLKISCAASGFTFSYYGMAWVRQAPTRGLEWVATITYNGSKSYYRDSVKGRFTISREYAKSTLYLQMDDLTSEDTATYFCARRTTGMLFDYWGQGVLVTVSS
VL: QAVLTQPNSVSMSLGSTVKLSCTLNSGNIENNFVHWYQQYEGRSPTTMIYNDDKRPDGVPDRFSGSIDSSSNSAFLTINNVEIGDEAIYFCHSFVSSIHIFGGGTKLTVL
notes: Rat clone; VH/VL only
Regarding B13, the Kd amounted to 0.191 nM.

B14: ZNRF3-247 (antibody, V domains shown)
VH: EVQLVGSGEGLVQPGSSMKLSCVASGFTFSNSGMNWIRQAPKKGLEWIALIYYTNTYYADSVKGRFTISRDNSKNTLYLEMNSLRSEDTAMYYCAKRGLTGSVDYWGQGVMVTVSS
VL: DIQMTQSPSFLSASVGDRVTINCKASQNINRYLNWYQQKLGEAPKRLIYDTSNLQTGIPSRFSGSGSGTDFTLTISSLQPEDFATYFCLQHDSFPNTFGTGTKLELK
notes: Rat clone; VH/VL only
For the molecule B14, the dissociation constant Kd turned out to be 0.161 nM.

B15: ZNRF3-279 (antibody, V domains shown)
VH: QVQLQQSGAELVKPGTSVRLSCKASGYTFTHNHMNWIKQTTGQGLEWIGIINPGSGGTNYNVRFKGKATLTVDTSSSTAFMQLSSLTPEDSAVYYCARNLITIAGPFAYWGQGTLVTVSS
VL: DTVLTQSPALTVSPGERVSISCRASEGVSSYIHWYQQKPGQQPKLLIYKASNLASGVPARFSGSGSGTDFTLTIDPVEADDTATYFCQQSWIDHTFGTGTKLELK
notes: Rat clone; VH/VL only
In the case of B15, the Kd turned out to be 1.66 nM.

B16: ZNRF3-219 (antibody, V domains shown)
VH: EVQLVESGGGLVQPGRSLKVSCAASGFTFSTFAMAWVRQAPKKGLEWVATITPGGSNTYYPDSVKGRFTISRDNAKSTLYLQMDSLRSEDTANYYCAKCGYPGITSFDYWGQGVMVTVSS
VL: DIQMTQSPSFLSASVGDRVSINCKASQNIGKYLNWYQQELGEAPKRLIYNTNNLQTGIPSRFSGSGSGTDYTLTISGLQPEDFATYFCLQHNGFPLTFGSGTKLEIK
notes: Rat clone; VH/VL only
With B16, the dissociation constant (Kd) was 1.9 nM.

B17: ZNRF3-275 (antibody, V domains shown)
VH: QVQLKESGPGLVQPSQTLSLTCTVSGFSFNYYNVHWLRQPPGKGLEWLGVIWSGGNRDYNSALKPRLRISRDTSKTQVFLTLNSLQTEDTGIYYCTRMWGYGYNPFDHWGQGVMVTVSS
VL: DIQMTQSPSFLSASLGDNITITCHASQDIKGWLAWYQQKSGNAPELLIYKASSLQSGVPSRFSGGGSGTEYVLTISNLQPDDIATYYCQLYHSFPFTFGSGTKLETK
notes: Rat clone; VH/VL only
Consider B17, for which the Kd was found to be 0.0565 nM.

B18: ZNRF3-314 (antibody, V domains shown)
VH: B17 VH with T23N, L37V, R57T, T76S, T96N, H108Y
VL: B17 VL with D17N, A51T, G65S, T106I
notes: Rat clone; VH/VL only
Regarding B18, the Kd stood at 0.104 nM.

B19: ZNRF3-312 (antibody, V domains shown)
VH: QVQLQQSGAELVKPGSSVKMSCKASGYSFTTYYIYWINQRPGQGLEWIGRIGLGSGDTDYNEKFKGKATFTVDKFSNTAYLQLSSLTPEDTAVYYCARWDYGYRGFAYWGQGTLVTVSS
VL: DVVMTQTPVSLSVSLGGQVSISCRSSQSFVHSDGNTYLNWYLQTPGQSPQLLIYKVSNRLSGVPDRFSGSGSGTYFTLKISRVEHDDLGVYYCGQASKIPLTFGSGTKLEIK
notes: Rat clone; VH/VL only
For B19, the dissociation constant Kd worked out at 0.611 nM.

B20: ZNRF3-301 (antibody, V domains shown)
VH: QVQLKESGPGLVQPSQTLSLTCTVSGFSLTSYSVHWVRQHSGKSLEWMGRIWSDGDTSYNSAFTSRLSISRDTSKSQVFLKMNSLQTEDTGTYYCDRSGGSPFFDYWGQGVMVTVSS
VL: QFVLTQSNSVSTNLGSTVKLSCERSIGNIGSNYVNWYQQYEGRSPTTMIYKFDQRPDGVPDRFSGSIDRSSNSVLLTINNVQTEDEADYFCQSYSSDMYIFGGGTKLTVL
notes: Rat clone; VH/VL only
On to B20, for which the Kd was 0.0974 nM.

B21: ZNRF3-296 (antibody, V domains shown)
VH: EVQLVESGGGLVQPGKSLRLSCSASGFTFSNYGLHWIRQAPGKGLDWLGYSSSNSGTVYGDAVKGRVTISRDNAKNTLYLQLNSLKSEDTAIYYCARGYSSSPFAYWGQGTLVTVSS
VL: DIVLTQSPALAVSLGQRVTISCKASQNVDGFGIGYMHWYQQKPGQKPKLLIFAGSNLASGIPARFSGSGSGTDFTLTIDPVETDDIATYYCQQNKDFPLTFGSGSRLEIT
notes: Rat clone; VH/VL only
With B21, the equilibrium dissociation constant (Kd) is 0.0371 nM.

B22: ZNRF3-182 (antibody, V domains shown)
VH: EVQLAESGGGLEQPGRSLKLSCAASGFTFSNYDMAWVRQAPTKGLEWVASIIKSGDTSYYRDSVKGRFTVSRDNAKSTLYLQMDSLRSEDTATYYCARHGVGSYDWFADWGQGTLVTVSS
VL: DIVLTQSPALAVSLGQRATISCRASQSVTISGFNLMHWYQQKPGQQPKLLIYRASNLAFGIPARFSGSGSGTDFTLTINPVQADDFTTYYCQQSRKSRTFGGGTKLELK
notes: Rat clone; VH/VL only
With B22, the Kd was 0.06 nM.
